Experimental data taken from patent publication US20240270826A1 (NATIONAL RESEARCH COUNCIL OF CANADA, published 2024).

Assays:
[1] = target: Human SARS-CoV-2_Wuhan S (SmT1) (SARS-CoV-2 (Wuhan), UniProt P0DTC2 14-1208); test: tandem SPR, immobilized S, orientation 1: VHH alone
[2] = target: SARS-CoV-2 spike protein S on live virus, Wuhan (strain SARS-CoV-2/Canada/VIDO-01/2020) (SARS-CoV-2 (Wuhan), UniProt P0DTC2 14-1273); test: cell-based or functional assay
[3] = target: Human SARS-CoV-2_Wuhan S (SmT1) (SARS-CoV-2 (Wuhan), UniProt P0DTC2 14-1208); test: flow cytometry SVNA, VHH-Fc vs biotin-S binding to Vero E6 ACE2
[4] = target: T1, SARS-CoV-2 S2 (aa686-1208) (Wuhan) (SARS-CoV-2 Wuhan, UniProt P0DTC2 686-1208); test: ELISA
T1 construct: NRC; FLAG, 6xHis tags

[5] = target: SARS-CoV-2 S1-NTD (aa16-305) (SARS-CoV-2 Wuhan, UniProt P0DTC2 16-305); test: ELISA
[6] = target: T2, SARS-CoV-2 S on CHO-S cells (SARS-CoV-2, UniProt P0DTC2 14-1273); test: flow cytometry, CHO-S cells
T2 construct: whole, on cells

B1: NRCoV2-05 VHH (VHH)
VHH: EVKLVQSGGGLVQPGGSLRLSCAASGFIFSNYAMNWVRQAPGKGLEWVSGINSGGGDTRYADSVKGRFTVSRDNAKNTLYLQMNSLKPEDTGVYYCSKGPVSSYYGSGYDYRGQGTQVTVSS
End 1st inj (RU) [1]: 36.9 RU

B2: NRCoV2-S2G3 VHH (VHH)
VHH: QVQLVQSGGGSVQAGGSLRLSCAASGSTFGIFLMGWRRQAPGKQRELVAHITSGGATNYADSVKGRFTISRDNAKNTVYLQMNSLEPEDTAVYYCYTTKRDDASVYWGQGTQVTVSS
End 1st inj (RU) [1]: 59 RU

B3: NRCoV2-06 VHH (VHH)
VHH: EVQLVQSGGGLVQAGESLRLSCAASVSTFSSYAMGWYRQAPGKQRELVASIGFVGATYYIDSVKGRFTISRDNAKKTAYLQMNDLKPDDTAVYYCNARHYGGSEYWGQGTQVTVSS
End 1st inj (RU) [1]: 38.5 RU

B4: NRCoV2-12 VHH-Fc (Fc fusion)
chain: EVQLQQSGGGLVQAGGSLRLSCAASGRTFRNYVMGWFRQAPQAPGKDHEFVAAISWGGTEIYYADSVKGRFTISRDNAKNTVYLQMNSLKPEDTAVYYCAADRGLSYYYTRTTEYNYWGQGTQVTVSS
notes: bivalent VHH-Fc
LVNA IC50 [2]: 2.82 nM | IC50 [3]: 7.3 nM | IC99 [3]: 840 nM | Imax % [3]: 90%

B5: NRCoV2-1d VHH (VHH)
VHH: EVQLVESGGGSVQPGGSLRLSCAASGSTLDYYAIGWFRQAPGKEREWVSSVSSSDGNTLYADSVKGRFTISRDNAKNTVYLQMNSLKAEDTAVYVCAADYSMRPFAVGRWHRDYEYWGQGTQVTVSS
End 1st inj (RU) [1]: 26.3 RU

B6: NRCoV2-03 VHH (VHH)
VHH: EVQLVSSGGGLVQAGGSLRLSCTASGITFSYYAMGWYRQAPGQPRELVASMSNMDSTIYADSVKGRFTISRDNAKTTIYLQMNNLKPEDTAVYFCNIYGPTYSTRRNEYWGQGTQVTVSS
End 1st inj (RU) [1]: 18.1 RU

B7: NRCoV2-MRed04 VHH-Fc (Fc fusion)
chain: EVQLVESGGGLVQPGRSLRLSCAASGNSFSISTMGWFRQAPGKERELVASIWSDTTTSYADSVKGRFTISTDNTRTKVYLQMSSLNPEDTAVYYCAADRGFVVRGQYDYWGQGTQVTVSS
notes: bivalent VHH-Fc
binding result [4]: no binding (tested: 13 nM) | binding result [5]: no binding (tested: 13 nM) | Bmax [6]: 14900 | EC50 [6]: 4.2 nM

B8: NRCoV2-10 VHH (VHH)
VHH: QLQLQESGGGLVQPGGSLTLSCAASGNTFSRSNMHWYRQAPGAQREWVAAISSRGISTYAYSAKGRFTISRDNAKNTVSLQMNSLKPEDTAVYYCYAADDLGDYWGQGTQVTVSS
End 1st inj (RU) [1]: 9.6 RU

B9: NRCoV2-SR01 VHH (VHH)
VHH: EVQLVQSGGGSVQAGGSLRLSCVASGFTFDNYAIGWFRQAPGKEREGVSCISGNGGVTIYADSVKGRFTISRDNAKNLVYLQMNSLKPEDTAVYYCAATGIRSTWSVYGCSRLAGPYDYWGQGTQVTVSS
End 1st inj (RU) [1]: 39.4 RU

B10: NRCoV2-15 VHH (VHH)
VHH: EVQLVSSGGGLVEAGGSLRLSCIASGSTSGRNTMGWFRQAPGKQREWVAIVSTSGATNYAGSVKGRFTLSRDNAKNAVYLQMNNLKPEDTAVYYCYAAYGGGGDYWGQGTQVTVSS
End 1st inj (RU) [1]: 10.1 RU

B11: NRCoV2-17 VHH (VHH)
VHH: EVQLQQSGGGLVQTGGSLRLSCAAAGSPFSQLAMSWYRQISGKERAWVASISPTGNRSYSKIAKGRFTISRDNAKNTVTLQMTSLKPEDTAAYICQAANVNGGDYWGQGTQVTVSS
End 1st inj (RU) [1]: 16.7 RU

B12: NRCoV2-11 VHH-Fc (Fc fusion)
chain: EVQLVSSGGGLVQPGGSLRLSCAASGSSLDSYSVSWFRQAPGKEREWISFISRYYSSTYYTDSVKGRFTTSRDGDQKTVHLQMNSLKPEDTAVYYCAARSRDFSSPFSATDTYTSWGQGTQVTVSS
notes: bivalent VHH-Fc
binding result [4]: no binding (tested: 13 nM) | binding result [5]: no binding (tested: 13 nM) | Bmax [6]: 18200 | EC50 [6]: 4.3 nM

B13: NRCoV2-11 VHH (VHH)
VHH: EVQLVSSGGGLVQPGGSLRLSCAASGSSLDSYSVSWFRQAPGKEREWISFISRYYSSTYYTDSVKGRFTTSRDGDQKTVHLQMNSLKPEDTAVYYCAARSRDFSSPFSATDTYTSWGQGTQVTVSS
End 1st inj (RU) [1]: 21.8 RU

B14: NRCoV2-SR13 VHH (VHH)
VHH: EVQLVESGGGLVTTGGSLRLSCATSGSRFGSKHMAWYRQAPGKQRDLVAAISSGGSTHYGSSVKGRFTISRDNAKSTVYLQMNSLNPEDTAVFYCNMGGWDYRSNTYIPGSRSDYWGQGTQVTVSS
End 1st inj (RU) [1]: 36.9 RU

B15: NRCoV2-04 VHH (VHH)
VHH: AVQLVDSGGGLVQPGGSLRLSCAASGSPFSNVVMAWYRQAPGKQRERVAFISGGGIADYIMSVKGRFTISRDNAKNTVYLQMNSLKPEDTAVYYCWSSYESTWGQGTQVTVSS
End 1st inj (RU) [1]: 41.4 RU

B16: NRCoV2-SR02 VHH (VHH)
VHH: EVQLVDSGGGLVQAGGSLRLSCTASEFTLNYYSIGWFRQSPGKEREGVSCIRYSGGGIDYADSVKGRFTISRDNAKNTVYLTMNSLKPEDTAVYYCAADRLYSRACPTAGGRNYWGQGTQVTVSS
End 1st inj (RU) [1]: 10.3 RU

B17: NRCoV2-S2G4 VHH (VHH)
VHH: QVQLVQSGGGLVQAGGSLTLSCAPSGSTFSGYATNWYRQAPGKQRELVATISSDGDKNYADSVKGRFTISRDNAKNTVYLQMNSLKPEDTAVYYCNKHWWTGDWWGQGTQVTVSS
End 1st inj (RU) [1]: 21.3 RU

B18: NRCoV2-SR04 VHH (VHH)
VHH: QVQLVESGGGLVQAGGSLRLSCAASGRTFSSHTVGWYRQAPGKQRDLVAAISMGGNTNYADYADSVKGRFTISRDNAKNTLYLQMNSLKPEDTAVYYCNTAALVGNRLLPMATITWGQGTQVTVSS
End 1st inj (RU) [1]: 10.9 RU

B19: NRCoV2-SR16 VHH (VHH)
VHH: QVQLVQSAGGLVQAGGSLRLSCVVSGTTFSRYHMGWHRQAPGKQRDFVAGISTSGAVTYADSAKGRFTISRDNAKNTVYLEMNSLKLEDTALYYCNTGGWDYRSSTFIMGLNWGQGTQVTVSS
End 1st inj (RU) [1]: 37.4 RU

B20: NRCoV2-S2F3 VHH (VHH)
VHH: EVQLVQSGGGLVQAGGSLRLSCATSVRILSVPAMGWYRQAPGKEREMVAVITSGGSTNYADSVKGRFTISRDNAKNTVYLQMNSLKLEDTAVYQCNLRDILSQPFWGQGTQVTVSS
End 1st inj (RU) [1]: 50 RU

B21: NRCoV2-07 VHH-Fc (Fc fusion)
chain: QVQLVQSGGGLVQPGGSLRLSCAASGVTLDYYAIGWFRQAPGKEREAVSCISSNGRRNHYVASVRGRFTISRDNAKSTVYLQMNSLKPEDTAVYYCAAVQDVHGDNYYCTSPNEYNVWGQGTQVTVSS
notes: bivalent VHH-Fc
binding result [4]: no binding (tested: 13 nM) | binding result [5]: no binding (tested: 13 nM) | Bmax [6]: 10600 | EC50 [6]: 1.1 nM

B22: NRCoV2-20 VHH-Fc (Fc fusion)
chain: EVQLQQSGGGLVQPGGSLRLSCAASGRTFSNYVVGWFRQAPQAPGKDHEFVAVISGSDTETYYADSVKGRFTISRDNAKNTVYLQMNSLKPEDTAVYYCAADRGMSYYYTRATEYYYWGQGTQVTVSS
notes: bivalent VHH-Fc
LVNA IC50 [2]: 11.2 nM | IC50 [3]: 8.7 nM | IC99 [3]: 70.3 nM | Imax % [3]: 66%

B23: NRCoV2-20 VHH (VHH)
VHH: EVQLQQSGGGLVQPGGSLRLSCAASGRTFSNYVVGWFRQAPQAPGKDHEFVAVISGSDTETYYADSVKGRFTISRDNAKNTVYLQMNSLKPEDTAVYYCAADRGMSYYYTRATEYYYWGQGTQVTVSS
End 1st inj (RU) [1]: 27.1 RU

B24: NRCoV2-20 VHH-Fc (Fc fusion)
chain: EVQLQQSGGGLVQPGGSLRLSCAASGRTFSNYVVGWFRQAPQAPGKDHEFVAVISGSDTETYYADSVKGRFTISRDNAKNTVYLQMNSLKPEDTAVYYCAADRGMSYYYTRATEYYYWGQGTQVTVSS
notes: bivalent VHH-Fc
binding result [4]: no binding (tested: 13 nM) | binding result [5]: no binding (tested: 13 nM) | Bmax [6]: 12100 | EC50 [6]: 0.7 nM

B25: NRCoV2-18 VHH-Fc (Fc fusion)
chain: EVQLVESGGGLVQAGGSLRLSCVASGITISGYNMAWWRQTRGKQTERVAFINSGGSTTYSDSVKGRFTISRDNGKNTAYLQMNSLNAEDTADYFCSLHTSHDYWGQGTQVTVSS
notes: bivalent VHH-Fc
LVNA IC50 [2]: 6.4 nM | IC50 [3]: 12 nM | IC99 [3]: 680 nM | Imax % [3]: 90%

B26: NRCoV2-18 VHH (VHH)
VHH: EVQLVESGGGLVQAGGSLRLSCVASGITISGYNMAWWRQTRGKQTERVAFINSGGSTTYSDSVKGRFTISRDNGKNTAYLQMNSLNAEDTADYFCSLHTSHDYWGQGTQVTVSS
End 1st inj (RU) [1]: 12.6 RU

B27: NRCoV2-18 VHH-Fc (Fc fusion)
chain: EVQLVESGGGLVQAGGSLRLSCVASGITISGYNMAWWRQTRGKQTERVAFINSGGSTTYSDSVKGRFTISRDNGKNTAYLQMNSLNAEDTADYFCSLHTSHDYWGQGTQVTVSS
notes: bivalent VHH-Fc
binding result [4]: no binding (tested: 13 nM) | binding result [5]: no binding (tested: 13 nM) | Bmax [6]: 18300 | EC50 [6]: 0.9 nM

B28: NRCoV2-14 VHH (VHH)
VHH: EVQLVSSGGGLVQAGGSLRLSCEASGTTFSHYAVGWYRQAPGKQREWVASISVFGSTTYGGSVAGRFTISRDNDKNTVDLQMNSLKPEDTAVYYCHAVNADIGGDYWGQGTQVTVSS
End 1st inj (RU) [1]: 26.9 RU
